Source: article PMC3675359, “GxcC connects Rap and Rac signaling during Dictyostelium development” (BMC Cell Biology, 2013)

Target: T1, NtermGxcC (aa 1-633), recombinant GST-ARM purified from E. coli (Dictyostelium discoideum, UniProt Q54P24 1-633)
T1 construct: GxcC, Dictyostelium discoideum, UniProt Q54P24; aa 1-633 as printed, from pGEX4T3; the cloning paragraph says that the N-terminal fragment of base pairs 1-1911 (637 codons) was ligated into pGEX 4T3; also called ARM domain of GxcC; purified GxcC ARM domain; not shown: GST, N-terminal, kept
T1 sequence (looked up): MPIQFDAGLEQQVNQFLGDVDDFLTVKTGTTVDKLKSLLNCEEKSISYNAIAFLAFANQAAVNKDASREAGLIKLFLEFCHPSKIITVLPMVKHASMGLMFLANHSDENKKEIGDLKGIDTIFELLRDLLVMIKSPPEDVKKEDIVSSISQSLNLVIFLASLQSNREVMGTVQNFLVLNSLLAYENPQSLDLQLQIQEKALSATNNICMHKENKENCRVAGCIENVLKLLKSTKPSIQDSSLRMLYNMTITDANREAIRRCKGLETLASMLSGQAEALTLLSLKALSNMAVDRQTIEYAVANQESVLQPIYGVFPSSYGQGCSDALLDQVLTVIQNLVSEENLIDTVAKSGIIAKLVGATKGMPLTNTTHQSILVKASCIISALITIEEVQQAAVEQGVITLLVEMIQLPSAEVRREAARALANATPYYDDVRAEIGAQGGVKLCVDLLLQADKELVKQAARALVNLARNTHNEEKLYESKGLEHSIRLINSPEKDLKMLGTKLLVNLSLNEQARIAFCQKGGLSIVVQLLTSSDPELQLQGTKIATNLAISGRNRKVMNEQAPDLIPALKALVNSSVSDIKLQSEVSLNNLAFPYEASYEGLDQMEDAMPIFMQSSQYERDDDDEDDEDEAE
Assay: guanine nucleotide dissociation inhibition (GDI) assay; G-protein loaded with mGppNHp incubated with an excess of unlabelled nucleotide; decay of fluorescence (kobs) at varying concentrations of GST-ARM
Conditions: both partners purified

- Kd: 13.3 µM
B1: RapA purified from E. coli (loaded with mGppNHp or mGDP) (natural protein, Dictyostelium discoideum, UniProt P18613 1-186, looked up)
chain: MPLREFKIVVLGSGGVGKSALTVQFVQGIFVEKYDPTIEDSYRKQVEVDSNQCMLEILDTAGTEQFTAMRDLYMKNGQGFVLVYSIISNSTFNELPDLREQILRVKDCEDVPMVLVGNKCDLHDQRVISTEQGEELARKFGDCYFLEASAKNKVNVEQIFYNLIRQINRKNPVGPPSKAKSKCALL
notes: RapA, Dictyostelium discoideum; Loaded with the fluorescent nucleotide mGppNHp (or mGDP); It may be the GST-RapA of the screen with or without its GST; source: E. coli, purified
